Laboratory results reported in the supplement of paper PMC9170038.

Test system: MS2 coat protein
Test: apparent KD of MS2 coat protein; designed switch direction (-1 OFF switch, 1 ON switch): -1; higher = weaker reporter binding
How it was run: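 The apparent KD reported per design is the median over clusters of curve fits to normalised cluster fluorescence. The RNA switches were transcribed on Illumina chips by stalled E. coli RNA polymerase. SNAP-549-labelled MS2 coat protein was titrated from 0.7 or 1.5 nM, doubling up to 3 µM, in Tris-HCl pH 7.5 buffer containing KCl, MgCl2, BSA, DTT, tRNA and Tween-20, with no input, 200 uM small-molecule ligand, or an oligonucleotide input.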

[1] = input ligand: microRNA oligo, concentration not stated
[2] = Eterna round: R95, input ligand: microRNA oligo, concentration not stated

| Sequence | apparent KD of MS2 coat protein (input ligand: FMN 200 uM) | apparent KD of MS2 coat protein [1] | apparent KD of MS2 coat protein (input ligand: none) | apparent KD of MS2 coat protein [2] |
| --- | --- | --- | --- | --- |
| UUAAAUCAUGUAGGAUAUGCGUGGCGAAGCUAUGCAGAAGGACAUGAGGAUCACCCAUGUUCUUCCGUCUGCGUACAGACGGAA [Mat - Exclusion NG 1 - Mod of JL - D38] (Eterna round: R96, puzzle: Exclusion NG 1) | 284 nM | 33.7 nM | 40.8 nM |  |
| UUAAAUCAUGUAGGAUAUGCGUGGCGAAGCUAUGCAGAAGGACAUGAGGAUCACCCAUGUUCUUCCGUCUGCGUACAGAUGGAA [JL ENG1 1.08] (Eterna round: R96, puzzle: Exclusion NG 1) | 271 nM | 33.8 nM | 36.3 nM |  |
| UUAAAUCAUGUAGGAUAUGGAAGGCGAACCUAUCCAGAAGGACAUGAGGAUCACCCAUGUGCUGCGUUGUCCGUAGACAGCGCU [Ex NG1 #1] (Eterna round: R96, puzzle: Exclusion NG 1) | 114 nM | 29.5 nM | 36.2 nM |  |
| UUAACAUGCUGGUGAUCAUACAUGAGGAUCACCCAUGUAACAAGCUUUUUGCUCGUCUUAUAAUUUAAGAUCACCAG [Stov1/7-A1] (Eterna round: R97, puzzle: Sensor, turn-off variant 1) | 17 nM |  | 15.9 nM |  |
| UUAACAUGCUGGUGAUCAUACAUGAGGAUCACCCAUGUAACAAGCUUUUUGUUCGUCUUAUAAGAUUACUAGUAUGU [Stov1/10-B1] (Eterna round: R97, puzzle: Sensor, turn-off variant 1) | 39.4 nM |  | 59.4 nM |  |
| UUAAGUUCAGGAUAUGAUGAAUUAAACAUGAGGAUCACCCAUGUAGAUCCUGAAAUAACAUCAGAAGGGAAUAUUU [JL-ex5-4.51 Brourd mod] (Eterna round: R97, puzzle: Exclusion 5) | 57 nM |  | 17.6 nM |  |
| UUAAUACAUGUAGGAUAUGCGUGGCGAAGCUAUGCAGAAGGACAUGAGGAUCACCCAUGUUCAUGCGUCCGCGUACGGAUGCAA [JL Eng1 1.21 mod 7] (Eterna round: R96, puzzle: Exclusion NG 1) | 19.9 nM | 12.6 nM | 14.9 nM |  |
| UUAAUGGCUGUGAGGAUAUCGGAUAGAUAGAUAUUCGAGAAGGUACAUGAGGAUCACCCAUGUGUGAUUAGAGA [Brourd's EX4 #64] (Eterna round: R97, puzzle: Brourd's mod of Exclusion 4) | 269 nM |  | 244 nM |  |
| UUAAUGUGAGGAUAUCAGGUGUGCUAGCGUACUGGUACAUCUGAGAAGGCACAUGAGGAUCACCCAUGUUCUUC [JL-ex4-3.30 Brourd mod] (puzzle: Exclusion 4) |  |  |  | 32.5 nM |
| UUAAUGUGAGGAUAUGGUAAAGAUAAGAUGAUGAAAGAACUCCAGAAGGCACAUGAGGAUCACCCAUGUAGAUG [JL-ex4-2.14 Jieux mod] (puzzle: Exclusion 4) |  |  |  | 35.6 nM |
| UUAAUUAAUAAUUAAGAUCAUUACAUGAGGAUCACCCAUGUCGAGGAUAUCAGCUCGUUUAGAGCUGAGAAGGCGACAAAUUAU [ExNG3/13-B2] (Eterna round: R96, puzzle: Exclusion NG 3) | 670 nM | 411 nM | 473 nM |  |
| UUAAUUAAUGUGAGGAUAUCUAGAGCUGCGGCUCUAGAGAAGGCACAUGAGGAUCACCCAUGUCUCAAUUAAUU [BmEx4/2-E3] (Eterna round: R97, puzzle: Brourd's mod of Exclusion 4) | 21.6 nM |  | 14.7 nM |  |
| UUAAUUAAUUAACGCAGCAAGAUCACAUGAGGAUCACCCAUGUAGGAUAUCAGCUCGUGUAGAGCUGAGAAGGACAUAGCUGCG [ExNG3/1-A3] (Eterna round: R96, puzzle: Exclusion NG 3) | 80.8 nM | 17.2 nM | 16.8 nM |  |
| UUAAUUAAUUAAGCGCAAGAUCACAUGAGGAUCACCCAUGUAUAGGAUAUCAGCUCGAUUAGAGCUGAGAAGGAUACAUAGCGC [ExNG3/2-A1] (Eterna round: R96, puzzle: Exclusion NG 3) |  | 185 nM |  |  |
| UUAAUUAAUUGCGCAAGAUCACAUGAGGAUCACCCAUGUAUAUAGGAUAUCAGCUCGUUUAGAGCUGAGAAGGAUAUACAGCGC [ExNG3/3-A2] (Eterna round: R96, puzzle: Exclusion NG 3) | 1320 nM | 536 nM | 488 nM |  |
| UUAAUUAAUUUAAUAUAAGAUCACAUGAGGAUCACCCAUGUAUAGGAUAUCAGCUCGAUUAGAGCUGAGAAGGAUACAUAAUAU [ExNG3/2-B1] (Eterna round: R96, puzzle: Exclusion NG 3) | 135 nM | 188 nM | 216 nM |  |
| UUAAUUAAUUUAUUAGAUCCUCACAUGAGGAUCACCCAUGUGCAGGAUAUCAGCUCGAUUAGAGCUGAGAAGGGCACUAUAAAU [ExNG3/10-B1] (Eterna round: R96, puzzle: Exclusion NG 3) | 65 nM | 56.4 nM | 62.2 nM |  |
| UUAAUUACGGUGCUUUAACCUCACAUGAGGAUCACCCAUGUGCAGGAUAUCAGCUCGAUUAGAGCUGAGAAGGGCACUGCACCG [ExNG3/11-A1] (Eterna round: R96, puzzle: Exclusion NG 3) | 15.1 nM | 9.95 nM | 12.5 nM |  |
| UUAAUUAGCAGACUAAUACCUCACAUGAGGAUCACCCAUGUGCAGGAUAUCAGCUCGAUUAGAGCUGAGAAGGGCACUGUCUGC [ExNG3/12-A1] (Eterna round: R96, puzzle: Exclusion NG 3) | 14.8 nM | 8.01 nM | 11.3 nM |  |
| UUAAUUAGCAGGCAAGAUCAUUACAUGAGGAUCACCCAUGUCGAGGAUAUCAGCUCGUGUAGAGCUGAGAAGGCGACAGCCUGC [ExNG3/13-A3] (Eterna round: R96, puzzle: Exclusion NG 3) | 666 nM | 207 nM | 334 nM |  |
| UUAAUUAGCAGGCAAGAUCAUUACAUGAGGAUCACCCAUGUCGAGGAUAUCAGCUCGUUUAGAGCUGAGAAGGCGACAGCCUGC [ExNG3/13-A2] (Eterna round: R96, puzzle: Exclusion NG 3) | 711 nM | 289 nM | 417 nM |  |
| UUAAUUCUGAUUCUUGAAAUACAUGAGGAUCACCCAUGUUCACAGGAUAUUGAUUAUGGUAGUAACAAGAAGGGUGUAUCAUUU [JR_ExcNG3_Sub040] (Eterna round: R96, puzzle: Exclusion NG 3) | 192 nM | 162 nM | 111 nM |  |
